Laboratory results published in the supplement of paper PMC9732359.
± gives the uncertainty stated by the source.

Assay: protein stability index of a GFP-peptide fusion (yeast GPS) (PSI 1-4); higher = more stable; sorted into four equal gates, so the index is relative within each strain
How it was run: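 Plasmids in a pooled yeast library fused tiled 17-residue yeast protein peptides downstream of GFP and also expressed Cherry. Mid-log cultures grown without leucine were sorted into four equal gates by GFP/Cherry fluorescence ratio. Each gate's plasmids were PCR-amplified and Illumina-sequenced, and reads were matched to strains by barcodes. The protein stability index is derived by multiplying each gate's read frequency by its gate number and summing the results.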

Sequence	protein stability index (doa10∆)	protein stability index (pdr5∆)	protein stability index (san1∆)	protein stability index (ubr1∆)
VSSSLYERRFGPYFVGP [PUP3]	2.79 ± 0.13	2.88 ± 0.16	2.62 ± 0.13	2.95 ± 0.095
TAVGKAAVVKTSSRQTV [RPT5]	3.39 ± 0.065	3.23 ± 0.07	3.28 ± 0.074	3.15 ± 0.052
EFFHLQHYLDTATAPRL [QCR6]	2.98 ± 0.057	3.03 ± 0.043	2.72 ± 0.058	3 ± 0.069
LSNEFTATNSKGEQIAI [ECM29]	3.06 ± 0.11	3.25 ± 0.12	2.91 ± 0.18	3.26 ± 0.11
EVYGINEESTNERLEIN [SIR4]	3.29 ± 0.16	3.25 ± 0.13	3.22 ± 0.16	3.15 ± 0.14
IVTKDGVRKEFYELKRD [PRE7]	2.35 ± 0.093	2.16 ± 0.066	3.04 ± 0.082	3.16 ± 0.07
LMRQGVLGIKVKIMRDP [RPS3]	2.4 ± 0.085	2.33 ± 0.074	2.25 ± 0.083	2.74 ± 0.051
SDPLTVFSESCSNESFA [SNU114]	2.83 ± 0.055	2.96 ± 0.057	2.58 ± 0.047	2.96 ± 0.038
NGKIWVKCEELSNTLAC [RRP40]	3.29 ± 0.12	3.24 ± 0.13	3.26 ± 0.067	3.6 ± 0.16
FEAQIDSVEFIFQAKRN [RPN10]	2.32 ± 0.11	2.67 ± 0.082	2.45 ± 0.13	2.66 ± 0.1
SKVSKQQAKGAFQKVAA [RPL24B]	2.45 ± 0.042	2.97 ± 0.043	2.78 ± 0.036	2.65 ± 0.036
TGWHVDQAIVTETKRLV [DIB1]	1.88 ± 0.074	2.24 ± 0.075	2.08 ± 0.25	1.9 ± 0.077
DIEEGPITSKSWEEGTR [MCD1]	–	2.92 ± 0.19	2.99 ± 0.15	–
ELENNEFTENELNVDSM [ITC1]	3.38 ± 0.07	3.21 ± 0.073	3.33 ± 0.065	3.27 ± 0.069
DNFSPHQNVIIGSNGSG [SMC3]	–	2.89 ± 0.14	2.78 ± 0.088	3.28 ± 0.079
YLQETAISGKKTTYYYY [RPC82]	2.77 ± 0.079	3.02 ± 0.14	2.84 ± 0.057	3.07 ± 0.075
VNIHHLLNEYRPHQSRE [MED7]	2.81 ± 0.084	2.4 ± 0.16	1.81 ± 0.2	2.25 ± 0.1
MEWPKDMLKYKEDEPVV [ITC1]	2.75 ± 0.27	3.12 ± 0.14	3.36 ± 0.09	3.67 ± 0.17
SAPPPALPHVEINQVSL [RGR1]	2.46 ± 0.074	2.96 ± 0.11	2.48 ± 0.09	2.33 ± 0.052
REQYETQVALNESEKDQ [UBP6]	3.1 ± 0.069	2.66 ± 0.065	2.69 ± 0.067	2.91 ± 0.051
ICEDPETAKKITFHPKI [SMC2]	2.84 ± 0.1	2.74 ± 0.084	2.16 ± 0.28	2.9 ± 0.077
KSGKFCSHCGCVYVPNF [SNM1]	2.48 ± 0.068	1.79 ± 0.055	1.7 ± 0.11	1.42 ± 0.062
LMAQIFFGPTYYQRLRH [RPB2]	2.02 ± 0.035	1.81 ± 0.032	2.08 ± 0.048	2.04 ± 0.031
TSADLKSKAEELTQVPS [UBP6]	3.16 ± 0.21	3.22 ± 0.12	2.79 ± 0.13	3.12 ± 0.18
SLLLKNYLNDMHDSNLQ [SKP1]	2.31 ± 0.093	2.48 ± 0.05	1.81 ± 0.093	2.08 ± 0.05
EENSSSNGNNLPLNKPR [RGR1]	3.24 ± 0.044	3.29 ± 0.044	3.2 ± 0.041	3.26 ± 0.045

Sequence	protein stability index (doa10∆)	protein stability index (pdr5∆)	protein stability index (san1∆)	protein stability index (ubr1∆)
GTTATGTGLFGQQTAQP [YGR119C/NUP57]	2.91 ± 0.16	2.76 ± 0.079	3.02 ± 0.18	3 ± 0.14
LYRLSTPLRDEVTDKNY [PRP8]	3.13 ± 0.096	2.88 ± 0.066	3.02 ± 0.067	3.11 ± 0.059
MSDFVPIDAGLNEAPFP [MCD1]	3 ± 0.07	2.56 ± 0.05	2.92 ± 0.051	2.97 ± 0.047
TDLNQDSAAIIAATGLN [GRR1]	1.62 ± 0.17	1.32 ± 0.1	1.43 ± 0.22	1.55 ± 0.097
TSVDGKKRSKVRKETYS [HTB2]	3.04 ± 0.087	3.19 ± 0.14	3.15 ± 0.18	3.31 ± 0.067
DKLLKRLKEKGSRVLIF [ISW2]	1.35 ± 0.042	1.61 ± 0.059	1.36 ± 0.1	1.36 ± 0.052
SIQDTSTVAKNVSFVLP [YCG1]	3.21 ± 0.11	2.92 ± 0.074	3.29 ± 0.08	3.04 ± 0.054
LPAYSGEIGDFFSSDWR [POP1]	3.04 ± 0.11	3.32 ± 0.089	3.24 ± 0.068	3.16 ± 0.096
VSKEGLYQLVDIRDSSC [YMR129W/POM152]	2.83 ± 0.099	2.92 ± 0.084	2.7 ± 0.06	2.84 ± 0.05
PVDVDFNLDLDDIVSHQ [REC8]	–	3.4 ± 0.12	–	–
VGEKLVVVVLEEPSASI [SIR3]	3.07 ± 0.076	2.94 ± 0.087	3.2 ± 0.052	3.1 ± 0.13
MKVLEERNAFLSDYEVL [RPC17]	–	2.77 ± 0.27	–	–
PHGFPSRMTVGKMIELI [RET1]	2.54 ± 0.11	2.56 ± 0.11	2.77 ± 0.084	2.46 ± 0.092
VHDKILEDLVFPTEIVG [RPS7A]	3.3 ± 0.13	3.15 ± 0.076	3.27 ± 0.061	3.31 ± 0.1
GGSNYMSNLPFGLGYGD [RPC31]	2.83 ± 0.28	3.15 ± 0.19	–	3.16 ± 0.18
TSTGTTIVGVKFNNGVV [PUP1]	2.55 ± 0.12	3.14 ± 0.11	3.01 ± 0.14	2.71 ± 0.095
EDDESLGHKELKVRKGH [RPB2]	2.29 ± 0.071	2.54 ± 0.067	2.45 ± 0.076	2.97 ± 0.049
QILENYNALFQQNIKFR [YJL039C/NUP192]	2.73 ± 0.075	2.79 ± 0.065	2.86 ± 0.036	3.04 ± 0.054
MQIFVKTLTGKTITLEV [RPS31]	2.48 ± 0.17	1.76 ± 0.097	2.61 ± 0.13	3.13 ± 0.13
EAESLLQFHVATYMDND [RPO21]	2.82 ± 0.1	2.7 ± 0.13	2.7 ± 0.073	2.94 ± 0.15
LSFINPKTGKVERSEAI [SEC65]	3.6 ± 0.17	3.47 ± 0.081	3.33 ± 0.14	3.22 ± 0.073
NRSNDALIKFMEYHISN [FAS2]	2.93 ± 0.074	2.55 ± 0.078	2.96 ± 0.084	2.45 ± 0.057
THLHEALDIVCSDFVKI [NUT1]	2.28 ± 0.089	2.48 ± 0.063	2.15 ± 0.11	1.92 ± 0.078
TLQLGQEFQLKQINHQG [RPB4]	3.22 ± 0.26	3.28 ± 0.15	–	3.38 ± 0.24
VPNSIGNIFSNIGTPSF [SNF5]	2.8 ± 0.11	2.6 ± 0.1	1.33 ± 0.15	2.79 ± 0.061
